For the assay, the target named is Untagged human calmodulin (recombinant) (human, UniProt P0DP23 1-149). Put plainly: pull-down.

With FGKTKIFFRAGQVAYLEKLRADKLRAACIRIQKTIRGWLLRKRYLCMQR (domain or fragment) [GFP-myoVa-IQ1 (aa742-791)], the binding result was “binds”.
